# Reference: publication PMC10629212, “Active Site Loop Engineering Abolishes Water Capture in Hydroxylating Sesquiterpene Synthases” (ACS Catalysis, 2023)
# Positions count from the first letter of the chain named. Names may count otherwise.
# B1: PTS (patchoulol synthase) (Pogostemon cablin; E461S/K458R/K459R/R460G) (protein)
# chain: MELYAQSVGVGAASRPLANFHPCVWGDKFIVYNPQSCQAGEREEAEELKVELKRELKEASDNYMRQLKMVDAIQRLGIDYLFVEDVDEALKNLFEMFDAFCKNNHDMHATALSFRLLRQHGYRVSCEVFEKFKDGKDGFKVPNEDGAVAVLEFFEATHLRVHGEDVLDNAFDFTRNYLESVYATLNDPTAKQVHNALNEFSFRRGLPRVEARKYISIYEQYASHHKGLLKLAKLDFNLVQALHRRELSEDSRWWKTLQVPTKLSFVRDRLVESYFWASGSYFEPNYSVARMILAKGLAVLSLMDDVYDAYGTFEELQMFTDAIERWDASCLDKLPDYMKIVYKALLDVFEEVDEELIKLGAPYRAYYGKEAMKYAARAYMEEAQWREQKHKPTTKEYMKLATKTCGYITLIILSCLGVEEGIVTKEAFDWVFSRPPFIEATLIIARLVNDITGHEFERRGSHVRTAVECYMEEHKVGKQEVVSEFYNQMESAWKDINEGFLRPVEFPIPLLYLILNSVRTLEVIYKEGDSYTHVGPAMQNIIKQLYLHPVPY
# notes: recombinant purified; construct details only in Supporting Information
# B2: PTS (patchoulol synthase) (Pogostemon cablin; Y531F) (protein)
# chain: B1 chain with R458K, R459K, G460R, S461E, Y531F
# notes: as for B1
# B3: PTS (patchoulol synthase) (Pogostemon cablin; Y525A) (protein)
# chain: B1 chain with R458K, R459K, G460R, S461E, Y525A
# notes: as for B1
# B4: PTS (patchoulol synthase) (Pogostemon cablin; Y525F) (protein)
# chain: B1 chain with R458K, R459K, G460R, S461E, Y525F
# notes: as for B1
# B5: PTS (patchoulol synthase) (Pogostemon cablin) (protein)
# chain: B1 chain with R458K, R459K, G460R, S461E
# notes: as for B1
# B6: PTS (patchoulol synthase) (Pogostemon cablin; C405A) (protein)
# chain: B1 chain with C405A, R458K, R459K, G460R, S461E
# notes: as for B1
# B7: Gd11olS (germacradiene-11-ol synthase) (Streptomyces coelicolor A3(2)) (protein)
# chain: MTQQPFQLPHFYLPHPARLNPHLDEARAHSTTWAREMGMLEGSGVWEQSDLEAHDYGLLCAYTHPDCDGPALSLITDWYVWVFFFDDHFLEKYKRSQDRLAGKAHLDRLPLFMPLDDAAGMPEPRNPVEAGLADLWTRTVPAMSADWRRRFAVATEHLLNESMWELSNINEGRVANPVEYIEMRRKVGGAPWSAGLVEYATAEVPAAVAGTRPLRVLMETFSDAVHLRNDLFSYQREVEDEGELSNGVLVLETFFGCTTQEAADLVNDVLTSRLHQFEHTAFTEVPAVALEKGLTPLEVAAVGAYTKGLQDWQSGGHEWHMRSSRYMNKGERPLAGWQ
# notes: likely N-terminal germacradienol synthase domain of the bifunctional geosmin synthase (as in PDB 5DZ2); recombinant purified
# B8: Gd11olS (germacradiene-11-ol synthase) (Streptomyces coelicolor A3(2); D240G/E239R/E241S/V238R) (protein)
# chain: B7 chain with V238R, E239R, D240G, E241S
# notes: as for B7
# Substrate: CC(C)=CCC/C(C)=C/CC/C(C)=C/CO[P@@](=O)(O)OP(=O)(O)O
# Assay: steady-state kinetics of sesquiterpene formation (details in Supporting Information)
# Format: biochemical, Pogostemon cablin
# Details: Mg2+-dependent enzyme; conditions in Supporting Information
# Text: steady-state kinetics of sesquiterpene formation (details in Supporting Information) on PTS (patchoulol synthase)
row,Protein,Km
1,B1,1.54 ± 0.16 µM
2,B2,0.37 ± 0.09 µM
3,B3,5.27 ± 1.22 µM
4,B4,4.8 ± 1.26 µM
5,B5,0.68 ± 0.14 µM
6,B6,0.67 ± 0.09 µM

# Substrate: CC(C)=CCC/C(C)=C/CC/C(C)=C/CO[P@@](=O)(O)OP(=O)(O)O
# Assay: as above
# Format: biochemical, Streptomyces coelicolor
# Details: Mg2+-dependent enzyme; conditions in Supporting Information
# Remark: another data set of the same source
# Text: steady-state kinetics of sesquiterpene formation (details in Supporting Information) on Gd11olS (germacradiene-11-ol synthase)
row,Protein,Km
1,B7,0.45 ± 0.08 µM
2,B8,6.02 ± 1.25 µM
